The text below walks through data of article PMC3887256.

Usually stoichiometry N stands for the number of molecules, sites or subunits per partner or assembly.

The assay has as its target TAP-tagged human presenilin 1 (human) (UniProt P49768). Description: SEC-MALS; TAP-purified PS1 complex on Superdex S-200 10/300 in Tris buffer with 0.1% digitonin; protein and detergent masses by conjugate analysis; complex co-purified from cells. For orientation: Size exclusion chromatography separates by hydrodynamic size, large species first.

“anterior pharynx 1 (aph1) (from UniProt Q96BI3 1-265) (natural protein)” returned a stoichiometry N of 1.
